Measured values published in patent US20250145694A1 (GUANGDONG FEIPENG BIOLOGICAL, published 2025).
Numbering of substitutions follows the chain as printed.

B1: Mutation 1-12 (antibody)
heavy: EVQMVESGGGLLKPGGSLKLSCAASGFTYSNYAMSWVRQTPEKRLEWVATISSGGSYSYYPDSVKGRFTISRDNAKNTLYLQMLSLRSEDTAMYYCARRDNYPGSTFMDYWGQGSSVTVSSAKTTPPSVYPLAPGSAAQTNSMVTLGCLVKGYFPEPVTVTWNSGSLSSGVHTFPAVLQSDLYTLSSSVTVPSSTWPSQTVTCNVAHPASSTKVDKKIVPRDCGCKPCICTVPEVSSVFIFPPKPKDVLTITLTPKVTCVVVDISKDDPEVQFSWFVDDVEVHTAQTKPREEQFNSTFRSVSELPIMHQDWLNGKEFKCRVNSAAFPAPIEKTISKTKGRPKAPQVYTIPPPKEQMAKDKVSLTCMITNFFPEDITVEWQWNGQPAENYKNTQPIMDTDGSYFVYSKLNVQKSNWEAGNTFTCSVLHEGLHNHHTEKSLSHSPG
light: DIQMTQTSSSLSASLGDRVTISCRASQEITNYLNWYQQKPDGTIKLLIYYTSRLHSGVSSRFSGSGSGTDYSLTISNLEQEDIATYFCQQGHTLPLTFDTGTKLELKRADAAPTVSIFPPSSEQLTSGGASVVCFLNNFYPKDINVKWKIDGSERQNGVLNSWTDQDSKDSTYSMSSTLTLTKDEYERHNSYTCEATHKTSTSPIVKSFNRNEC
notes: assembled FR/CDR/constant
B2: Mutation 1-13 (antibody)
heavy: B1 heavy with Y29F, Y59F, T106S
light: B1 light with L54I, H92N, L94I
notes: assembled FR/CDR/constant
B3: Mutation 1-14 (antibody)
heavy: B1 heavy with Y59F, P103F
light: B1 light with E28D, L94I
notes: assembled FR/CDR/constant
B4: Mutation 1-15 (antibody)
heavy: B1 heavy with Y29F, P103F, T106S
light: B1 light with L54I, H92N
notes: assembled FR/CDR/constant
B5: Mutation 1-17 (antibody)
heavy: B1 heavy with Y29F, Y59F, P103Y, T106S
light: B1 light with E28D, L94I
notes: assembled FR/CDR/constant
B6: Mutation 1-18 (antibody)
heavy: B1 heavy with Y59F, T106S
light: B1 light with L54I, H92N
notes: assembled FR/CDR/constant
B7: Mutation 1-19 (antibody)
heavy: B1 heavy with Y29F, P103F
light: B1 light
notes: assembled FR/CDR/constant
B8: Mutation 1-20 (antibody)
heavy: B1 heavy with P103F, T106S
light: B1 light with E28D, H92N
notes: assembled FR/CDR/constant
B9: Mutation 1-21 (antibody)
heavy: B1 heavy with Y29F, Y59F, P103Y
light: B1 light with E28D, L54I
notes: assembled FR/CDR/constant
B10: Mutation 1-22 (antibody)
heavy: B1 heavy with Y59F, P103Y, T106S
light: B1 light with E28D, L54I, L94I
notes: assembled FR/CDR/constant
B11: Mutation 1-23 (antibody)
heavy: B1 heavy with Y29F
light: B1 light with L54I, L94I
notes: assembled FR/CDR/constant
B12: Mutation 1-24 (antibody)
heavy: B1 heavy with P103F
light: B1 light with L54I, L94I
notes: assembled FR/CDR/constant
B13: Mutation 1-25 (antibody)
heavy: B1 heavy with Y29F, Y59F, P103F, T106S
light: B1 light with E28D, H92N
notes: assembled FR/CDR/constant
B14: Mutation 1-26 (antibody)
heavy: B1 heavy with Y59F, P103Y
light: B1 light with L54I
notes: assembled FR/CDR/constant
B15: Mutation 1-27 (antibody)
heavy: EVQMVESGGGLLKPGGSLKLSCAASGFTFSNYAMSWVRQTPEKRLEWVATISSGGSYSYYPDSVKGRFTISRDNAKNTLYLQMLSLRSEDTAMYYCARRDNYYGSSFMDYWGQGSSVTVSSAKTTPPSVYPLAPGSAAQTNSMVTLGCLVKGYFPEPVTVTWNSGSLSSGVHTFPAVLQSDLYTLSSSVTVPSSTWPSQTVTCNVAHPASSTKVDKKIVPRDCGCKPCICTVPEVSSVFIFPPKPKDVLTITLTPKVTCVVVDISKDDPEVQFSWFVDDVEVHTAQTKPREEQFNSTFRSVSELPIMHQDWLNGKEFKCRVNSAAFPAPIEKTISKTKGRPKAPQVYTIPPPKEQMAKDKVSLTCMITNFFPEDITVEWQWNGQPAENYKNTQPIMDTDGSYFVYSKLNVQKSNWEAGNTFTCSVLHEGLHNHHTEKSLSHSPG
light: B1 light with E28D, H92N, L94I
notes: assembled FR/CDR/constant
B16: Mutation 1-28 (antibody)
heavy: B1 heavy
light: B1 light with E28D
notes: assembled FR/CDR/constant
B17: Mutation 1-29 (antibody)
heavy: B1 heavy with Y29F, Y59F, P103F, T106S
light: B1 light with L54I, H92N, L94I
notes: assembled FR/CDR/constant
B18: Mutation 1-30 (antibody)
heavy: B1 heavy with Y59F, P103F, T106S
light: B1 light with L94I
notes: assembled FR/CDR/constant
B19: Mutation 1-31 (antibody)
heavy: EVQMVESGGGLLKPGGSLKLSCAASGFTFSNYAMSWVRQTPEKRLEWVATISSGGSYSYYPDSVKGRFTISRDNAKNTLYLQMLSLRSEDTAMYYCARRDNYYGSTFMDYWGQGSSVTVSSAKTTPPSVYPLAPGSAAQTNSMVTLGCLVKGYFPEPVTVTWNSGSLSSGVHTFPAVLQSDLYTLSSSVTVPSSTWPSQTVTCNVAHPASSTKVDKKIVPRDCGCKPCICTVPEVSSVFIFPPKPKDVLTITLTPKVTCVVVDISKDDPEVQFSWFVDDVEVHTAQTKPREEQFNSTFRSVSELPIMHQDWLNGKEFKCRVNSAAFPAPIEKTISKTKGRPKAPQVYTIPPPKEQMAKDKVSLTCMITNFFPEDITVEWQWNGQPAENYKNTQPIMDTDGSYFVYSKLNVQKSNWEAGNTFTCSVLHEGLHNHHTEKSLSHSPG
light: B1 light with E28D, L54I, H92N
notes: assembled FR/CDR/constant
B20: Mutation 1-32 (antibody)
heavy: B1 heavy with P103Y, T106S
light: B1 light with E28D, L54I, H92N, L94I
notes: assembled FR/CDR/constant
B21: Mutation 1-33 (antibody)
heavy: B1 heavy with Y29F, Y59F
light: B1 light with E28D, L94I
notes: assembled FR/CDR/constant
B22: Mutation 1-34 (antibody)
heavy: B1 heavy with Y59F, T106S
light: B1 light with E28D, L54I, H92N, L94I
notes: assembled FR/CDR/constant
B23: Mutation 1-35 (antibody)
heavy: B1 heavy with Y29F, P103F
light: B1 light with E28D
notes: assembled FR/CDR/constant
B24: Mutation 1-36 (antibody)
heavy: B1 heavy with P103Y
light: B1 light with L54I, H92N
notes: assembled FR/CDR/constant
B25: Mutation 1-37 (antibody)
heavy: B1 heavy with Y29F, Y59F, P103Y, T106S
light: B1 light with E28D
notes: assembled FR/CDR/constant
B26: Mutation 1-38 (antibody)
heavy: B1 heavy with Y59F
light: B1 light with E28D, H92N, L94I
notes: assembled FR/CDR/constant
B27: Mutation 1-39 (antibody)
heavy: B1 heavy with Y29F, T106S
light: B1 light with E28D, L54I, L94I
notes: assembled FR/CDR/constant
B28: Mutation 1-40 (antibody)
heavy: B1 heavy with P103F
light: B1 light with L54I, H92N
notes: assembled FR/CDR/constant; Same printed sites as Mutation 1-4
B29: Mutation 1-41 (antibody)
heavy: B1 heavy with Y29F, Y59F, P103F, T106S
light: B1 light with H92N
notes: assembled FR/CDR/constant
B30: Mutation 1-42 (antibody)
heavy: B1 heavy with Y59F, P103Y, T106S
light: B1 light with L54I, L94I
notes: assembled FR/CDR/constant
B31: Mutation 1-43 (antibody)
heavy: B1 heavy with Y29F
light: B1 light with E28D, H92N, L94I
notes: assembled FR/CDR/constant

Target: T1, CTNI quality control recombinant antigen (human, UniProt P19429 1-210, limits assumed)
T1 construct: Recombinant antigen produced by the applicant; also called CTNI quality control recombinant protein (antigen produced by the company); cardiac troponin I
Assay: BLI, antibody on AMC sensor, cTnI in solution
Method: With an AMC sensor, the purified antibody was diluted to 10 μg/ml with PBST, and CTNI quality control recombinant protein (antigen produced by the company) was gradient diluted with PBST to 769.2 nmol/ml, 384.6 nmol/ml, 192.3 nmol/ml, 96.2 nmol/ml, 48.1 nmol/ml, 24 nmol/ml, 12 nmol/ml, and 0 nmol/ml.

T1 sequence (P19429 whole entry): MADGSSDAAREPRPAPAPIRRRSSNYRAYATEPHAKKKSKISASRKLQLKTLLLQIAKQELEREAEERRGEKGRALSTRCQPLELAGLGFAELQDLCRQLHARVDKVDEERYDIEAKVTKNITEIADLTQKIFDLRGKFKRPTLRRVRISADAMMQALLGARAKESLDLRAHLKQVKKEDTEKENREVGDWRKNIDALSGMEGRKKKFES

| Binder | Kd [nM] | koff [s⁻¹] | kon [M⁻¹ s⁻¹] |
| --- | --- | --- | --- |
| B1 | 1.52 | 0.000135 | 88600 |
| B2 | 4.12 | 0.000354 | 86000 |
| B3 | 7.76 | 0.000498 | 64200 |
| B4 | 3.8 | 0.000145 | 38100 |
| B5 | 9.22 | 0.000336 | 36400 |
| B6 | 4.4 | 0.000253 | 57500 |
| B7 | 8.19 | 0.000772 | 94300 |
| B8 | 2.87 | 0.000172 | 59800 |
| B9 | 9.55 | 0.000632 | 66200 |
| B10 | 9.07 | 0.000312 | 34400 |
| B11 | 4.31 | 0.000336 | 77900 |
| B12 | 5.37 | 0.000248 | 46100 |
| B13 | 5.36 | 0.000364 | 67900 |
| B14 | 1.38 | 3.48e-05 | 25200 |
| B15 | 6.3 | 0.000501 | 79600 |
| B16 | 3.68 | 4.31e-05 | 11700 |

| Binder | Kd [nM] | koff [s⁻¹] | kon [M⁻¹ s⁻¹] |
| --- | --- | --- | --- |
| B17 | 7.59 | 0.000197 | 26000 |
| B18 | 5.76 | 0.000163 | 28300 |
| B19 | 8.73 | 0.000744 | 85200 |
| B20 | 8.38 | 0.000266 | 31700 |
| B21 | 0.979 | 0.000521 | 532000 |
| B22 | 8.44 | 0.000255 | 30200 |
| B23 | 5.25 | 0.000161 | 30700 |
| B24 | 9.27 | 0.000774 | 83500 |
| B25 | 4.2 | 0.000299 | 71000 |
| B26 | 7.74 | 0.00057 | 73700 |
| B27 | 6.25 | 0.000509 | 81400 |
| B28 | 3.12 | 0.000262 | 83900 |
| B29 | 9.24 | 0.000774 | 83800 |
| B30 | 3.09 | 0.000109 | 35200 |
| B31 | 5.37 | 0.000248 | 46100 |
